Bridge positions count the residues as written; N and C are the ends. Square brackets hold non-standard residues; d marks the D form. Phe(4-F) = N[C@@H](Cc1ccc(F)cc1)C(=O)O; Cha = N[C@@H](CC1CCCCC1)C(=O)O; AEEA = NCCOCCOCC(=O)O
T1: DDE
T1 chain 1: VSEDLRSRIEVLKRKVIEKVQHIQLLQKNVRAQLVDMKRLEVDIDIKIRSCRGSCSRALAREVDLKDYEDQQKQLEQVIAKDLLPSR
T1 chain 2: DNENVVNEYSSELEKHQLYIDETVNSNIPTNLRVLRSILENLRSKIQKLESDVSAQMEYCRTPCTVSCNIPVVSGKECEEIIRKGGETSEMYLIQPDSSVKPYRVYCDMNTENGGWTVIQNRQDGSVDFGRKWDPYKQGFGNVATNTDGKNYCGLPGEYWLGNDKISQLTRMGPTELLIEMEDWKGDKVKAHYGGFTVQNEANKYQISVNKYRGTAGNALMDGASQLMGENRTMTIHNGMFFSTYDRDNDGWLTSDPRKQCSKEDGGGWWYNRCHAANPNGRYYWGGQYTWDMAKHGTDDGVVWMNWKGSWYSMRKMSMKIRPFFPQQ
T1 chain 3: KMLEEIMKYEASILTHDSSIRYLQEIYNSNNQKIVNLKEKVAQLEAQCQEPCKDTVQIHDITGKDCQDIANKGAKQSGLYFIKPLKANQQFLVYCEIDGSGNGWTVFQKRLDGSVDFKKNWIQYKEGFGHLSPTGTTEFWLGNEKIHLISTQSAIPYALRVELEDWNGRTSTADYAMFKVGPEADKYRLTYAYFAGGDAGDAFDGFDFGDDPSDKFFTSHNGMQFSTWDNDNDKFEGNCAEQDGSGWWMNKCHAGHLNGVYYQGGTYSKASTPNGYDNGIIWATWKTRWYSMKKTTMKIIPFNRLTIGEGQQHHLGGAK
T1 chain 4: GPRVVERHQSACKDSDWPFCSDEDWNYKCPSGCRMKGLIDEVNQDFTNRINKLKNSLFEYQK
T1 chain 5: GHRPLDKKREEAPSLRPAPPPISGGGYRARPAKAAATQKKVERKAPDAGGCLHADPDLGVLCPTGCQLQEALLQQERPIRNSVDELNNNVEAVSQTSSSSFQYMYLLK
T1 chain 6: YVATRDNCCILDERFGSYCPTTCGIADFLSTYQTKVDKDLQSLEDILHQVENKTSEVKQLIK

T2: fibrin (human fibrinogen clotted with human thrombin on glass coverslips) (human, UniProt P02671 36-629; P02675 45-491; P02679 27-437, limits assumed)
T2 construct: also called fibrin-coated coverslips
T2 sequence (looked up) 1: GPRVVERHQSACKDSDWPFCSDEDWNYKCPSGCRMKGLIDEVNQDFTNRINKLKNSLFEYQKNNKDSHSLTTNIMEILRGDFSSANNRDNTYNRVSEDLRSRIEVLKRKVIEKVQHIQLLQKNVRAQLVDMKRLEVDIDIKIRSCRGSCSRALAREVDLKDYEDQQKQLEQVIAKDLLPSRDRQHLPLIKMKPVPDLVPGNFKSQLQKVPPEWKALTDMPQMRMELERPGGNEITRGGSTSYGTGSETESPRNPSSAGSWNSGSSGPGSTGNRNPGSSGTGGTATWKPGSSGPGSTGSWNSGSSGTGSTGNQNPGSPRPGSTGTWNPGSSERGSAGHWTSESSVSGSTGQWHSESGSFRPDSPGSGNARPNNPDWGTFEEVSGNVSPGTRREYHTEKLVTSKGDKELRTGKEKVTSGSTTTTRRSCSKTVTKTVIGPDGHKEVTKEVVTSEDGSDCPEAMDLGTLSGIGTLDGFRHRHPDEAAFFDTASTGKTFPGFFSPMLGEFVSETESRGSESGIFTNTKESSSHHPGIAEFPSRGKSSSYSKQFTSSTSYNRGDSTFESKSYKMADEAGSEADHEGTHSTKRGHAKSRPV
T2 sequence (looked up) 2: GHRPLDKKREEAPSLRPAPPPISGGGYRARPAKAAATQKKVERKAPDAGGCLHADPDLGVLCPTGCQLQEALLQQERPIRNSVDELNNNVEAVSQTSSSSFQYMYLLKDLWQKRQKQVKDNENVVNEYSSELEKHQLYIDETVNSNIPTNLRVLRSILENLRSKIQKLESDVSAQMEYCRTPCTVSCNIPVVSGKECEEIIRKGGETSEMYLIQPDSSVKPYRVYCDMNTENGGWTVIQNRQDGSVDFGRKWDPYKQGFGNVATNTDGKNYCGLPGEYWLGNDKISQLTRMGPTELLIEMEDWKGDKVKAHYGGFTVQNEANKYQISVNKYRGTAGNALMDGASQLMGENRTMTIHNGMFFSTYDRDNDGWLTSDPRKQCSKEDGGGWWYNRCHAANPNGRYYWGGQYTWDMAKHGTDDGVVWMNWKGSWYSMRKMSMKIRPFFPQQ
T2 sequence (looked up) 3: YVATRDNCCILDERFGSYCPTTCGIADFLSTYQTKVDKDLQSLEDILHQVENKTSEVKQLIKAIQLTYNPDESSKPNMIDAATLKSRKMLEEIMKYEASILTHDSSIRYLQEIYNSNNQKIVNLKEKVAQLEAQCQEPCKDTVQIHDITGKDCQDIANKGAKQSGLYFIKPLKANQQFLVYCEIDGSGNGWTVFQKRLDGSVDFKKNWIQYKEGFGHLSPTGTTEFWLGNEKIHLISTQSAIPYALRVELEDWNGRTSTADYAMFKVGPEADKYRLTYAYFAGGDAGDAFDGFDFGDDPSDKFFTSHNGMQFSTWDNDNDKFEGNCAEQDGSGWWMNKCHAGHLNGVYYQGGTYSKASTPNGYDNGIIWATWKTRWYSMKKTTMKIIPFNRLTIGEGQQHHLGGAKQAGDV


target: DDE; assay: competition fluorescence polarization: unlabeled peptide against Seq000-CF5 tracer on DDE; n = 2

Rel IC50 (ratio to the reference peptide)	Binder
1.04	Ac-GWQPCPWESWTFCWDPGGGK-NH2 (disulfide 5-13) [Seq016-P]
0.601	Ac-WQPCPWESWT[Phe(4-F)]CWDPGGGK-NH2 (disulfide 4-12) [Seq019-P]
0.494	Ac-WQPCPWESWT[Cha]CWDPGGGK-NH2 (disulfide 4-12) [Seq018-P]

Target: T1, DDE
Assay: competition fluorescence polarization on DDE; this is the reference peptide, 1 by definition

Rel IC50	Binder
1 ratio to the reference peptide	WQPCPWESWTFCWDPGGGK (N-terminal acetyl (Ac-); C-terminal amide (-NH2); disulfide between the two C* cysteines, also called comparative peptide) [Seq000]

target: T2, fibrin (human fibrinogen clotted with …); assay: flow chamber test of targeted microvesicles on fibrin-coated coverslips
Experimental: Five mL of a solution of BSA 1% w/v in PBS pH 7.4 were added into a 60 mm Petri Dish containing one coverslip, and incubated at 37° C. for 15 min. Then the coverslip was washed three times with 5 ml of Tween 80/PBS (0.1%, v:v). Twenty five μL of human thrombin solution at 5 U/mL were added per mL of human fibrinogen solution (0.5 mg/mL in 50 mM sodium phosphate, NaCl 280 mM, pH 7.4) and delicately mixed. Five mL of this solution were immediately distributed in each Petri dish. The coverslips were incubated for one hour at 37° C. and then dried overnight at 45° C.
Binding studies of targeted microvesicles were carried out using a parallel-plate flow chamber (FCS2, Bioptech Inc., Butler, Pa., USA) with a chamber gasket of 0.25 mm in thickness, with a customized adapter for upside-down chamber inversion. The coated coverslip was inserted as a plate of the flow chamber. Gas-filled Microvesicles (5×10⁶ bubbles/mL in 50% human plasma in PBS) were drawn through the flow chamber using an adjustable infusion pump (Auto Syringe® AS50 Infusion Pump, Baxter, Deerfield, Ill., USA) with a 60 mL syringe (Terumo). The pump flow rate was adjusted to 1 mL/min to obtain the desired shear rate of about 114 s⁻¹. After 10 minutes, the flow was stopped and pictures were taken randomly on different positions on the coverslip (on surfaces of about 0.025 mm²) using a 40× objective and a CCD monochrome camera (F-View II, Soft Imaging Systems, Germany) connected to an inverted Olympus IX 50 microscope. The number of microvesicles on each picture was determined, averaged with respect to the total number of pictures and the obtained value was then divided by ten (to obtain the “slope”, i.e. the average amount of bound microvesicles per minute).

binding result	Binder
binds	Ac-SGSGSGSGWQPCPWESWTFCWDPGGGK-NH2 (disulfide 12-20; not fully specified (residue 27); printed as Ac-SGSGSGSGWQPC*PWESWTFC*WDPGGGK(DSPE-PG4-Glut)-NH2) [Seq024-PL1]
binds	Ac-WQPCPAESWTFCWDPGSAGSK-NH2 (disulfide 4-12; not fully specified (residue 21), Linker GSAGSK) [Seq005-PL4]
binds	Ac-SGSG[AEEA]WQPCPWESWTFCWDPGGGK-NH2 (disulfide 9-17; not fully specified (residue 24); printed as Ac-SGSGJWQPC*PWESWTFC*WDPGGGK(DSPE-PG4-Glut)-NH2) [Seq017-PL1]
binds	Ac-WQPCPAESWTFCWDPGGGK-NH2 (disulfide 4-12; not fully specified (residue 19); printed as Ac-WQPC*PAESWTFC*WDPGGGK(DSPE-PG4-Glut)-NH2) [Seq005-PL1]
binds	H-RWQPCPWESWTFCWDPGGGK-NH2 (disulfide 5-13; not fully specified (residue 20); printed as RWQPC*PWESWTFC*WDPGGGK(DSPE-PG4-Glut)-NH2) [Seq023-PL1]
binds	Ac-GWQPCPWESWTFCWDPGGGK-NH2 (disulfide 5-13; not fully specified (residue 20); printed as Ac-GWQPC*PWESWTFC*WDPGGGK(DSPE-PG4-Glut)-NH2) [Seq016-PL1]
binds	Ac-WQPCPAESWTFCWDPGAGSGK-NH2 (disulfide 4-12; not fully specified (residue 21), Linker GAGSGK) [Seq005-PL5]
